For test [1], the target named is minimal CrIFT81_(460-533)/CrIFT74_(460-532) complex (Chlamydomonas reinhardtii) (UniProt Q68RJ5).
The target in test [2] is CrIFT81_(152-C)/74_(150-C)/27/25_(1-136) complex (Chlamydomonas reinhardtii) (UniProt Q68RJ5). Put plainly: ITC.
In test [3] the target is Chlamydomonas reinhardtii RabL2, wild type (Chlamydomonas reinhardtii). Put plainly: ITC. For orientation: In ITC the heat of successive injections is recorded.
Test [4] shares this target. Description: ITC. This is another data set of the same source.

Where two headings read alike, the source gives them in different places.

CrIFT81_(152-C)/74_(150-C)/27/25_(1-136) complex (Chlamydomonas reinhardtii), sequence (Q68RJ5 152-683, chain 1 of 4): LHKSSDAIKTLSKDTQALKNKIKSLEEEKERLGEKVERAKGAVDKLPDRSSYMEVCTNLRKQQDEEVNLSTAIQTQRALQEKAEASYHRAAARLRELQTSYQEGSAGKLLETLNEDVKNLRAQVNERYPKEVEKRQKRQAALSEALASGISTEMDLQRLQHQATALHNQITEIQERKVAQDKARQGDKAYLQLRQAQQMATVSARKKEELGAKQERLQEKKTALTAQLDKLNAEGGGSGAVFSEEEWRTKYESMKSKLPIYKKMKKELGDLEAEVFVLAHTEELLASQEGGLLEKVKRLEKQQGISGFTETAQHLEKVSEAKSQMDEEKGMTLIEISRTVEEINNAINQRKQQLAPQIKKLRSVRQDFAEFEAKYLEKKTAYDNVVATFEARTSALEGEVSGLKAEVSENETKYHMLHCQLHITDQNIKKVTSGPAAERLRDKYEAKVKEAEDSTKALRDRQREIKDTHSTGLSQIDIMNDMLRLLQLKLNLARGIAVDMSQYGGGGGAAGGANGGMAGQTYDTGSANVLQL
CrIFT81_(152-C)/74_(150-C)/27/25_(1-136) complex (Chlamydomonas reinhardtii), sequence (Q6RCE1 150-641, chain 2 of 4, further chain): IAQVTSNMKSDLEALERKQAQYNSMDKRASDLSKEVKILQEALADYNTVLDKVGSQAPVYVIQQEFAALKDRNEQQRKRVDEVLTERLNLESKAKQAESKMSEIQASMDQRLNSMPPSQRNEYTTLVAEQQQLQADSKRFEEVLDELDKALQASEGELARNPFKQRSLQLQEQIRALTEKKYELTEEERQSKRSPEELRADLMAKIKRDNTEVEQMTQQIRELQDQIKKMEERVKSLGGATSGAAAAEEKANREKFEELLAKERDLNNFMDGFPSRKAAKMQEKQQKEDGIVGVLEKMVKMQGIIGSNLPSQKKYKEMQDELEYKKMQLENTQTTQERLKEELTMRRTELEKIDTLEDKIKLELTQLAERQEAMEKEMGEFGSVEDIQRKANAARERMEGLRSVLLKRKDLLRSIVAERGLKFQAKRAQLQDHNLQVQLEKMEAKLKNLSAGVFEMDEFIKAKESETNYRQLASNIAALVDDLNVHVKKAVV
CrIFT81_(152-C)/74_(150-C)/27/25_(1-136) complex (Chlamydomonas reinhardtii), sequence (A8HN58 whole entry, chain 3 of 4, further chain): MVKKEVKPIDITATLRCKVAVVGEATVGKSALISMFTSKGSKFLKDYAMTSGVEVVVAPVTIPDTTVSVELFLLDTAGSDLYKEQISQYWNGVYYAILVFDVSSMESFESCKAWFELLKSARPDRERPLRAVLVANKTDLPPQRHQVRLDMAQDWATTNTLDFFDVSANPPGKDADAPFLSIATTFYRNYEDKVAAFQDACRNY
CrIFT81_(152-C)/74_(150-C)/27/25_(1-136) complex (Chlamydomonas reinhardtii), sequence (B8LIX8 1-136, chain 4 of 4, further chain): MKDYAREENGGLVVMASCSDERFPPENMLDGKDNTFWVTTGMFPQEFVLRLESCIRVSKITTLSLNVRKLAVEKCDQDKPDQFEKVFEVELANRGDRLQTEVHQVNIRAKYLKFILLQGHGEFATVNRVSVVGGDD
minimal CrIFT81_(460-533)/CrIFT74_(460-532) complex (Chlamydomonas reinhardtii), sequence (Q68RJ5 460-533, chain 1 of 2): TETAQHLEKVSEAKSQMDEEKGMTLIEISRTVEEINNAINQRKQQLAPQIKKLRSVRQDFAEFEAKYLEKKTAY
minimal CrIFT81_(460-533)/CrIFT74_(460-532) complex (Chlamydomonas reinhardtii), sequence (Q6RCE1 460-532, chain 2 of 2, further chain): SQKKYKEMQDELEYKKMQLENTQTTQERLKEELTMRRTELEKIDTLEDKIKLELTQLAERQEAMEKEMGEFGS

Take “Chlamydomonas reinhardtii RabL2, wild type (natural protein)”: the GTPase rate of RabL2 with IFT81 (460-533)/74 (460-532) against RabL2 alone in test [1] came to 5 fold.

Broadly, the Kd is a measure of binding affinity in units of concentration. “Chlamydomonas reinhardtii RabL2 Q83L (GTP-locked mutant) (natural protein)” gave a Kd in test [2] of 590 nM.

Regarding “Chlamydomonas reinhardtii CEP19 residues 1-208 (domain or fragment)”, the Kd is 280 nM in test [3] and 12700 nM in test [4].
